Measurements taken from patent publication US20210355235A1, “Compositions and Methods For Treating Cancer with Anti-Renalase antibodies and Anti-PD1 antibodies” (YALE UNIVERSITY, priority 2017, published 2021).
Entries after “also recorded” stand apart in the source; their conditions may differ. Where two headings read alike, the source gives them in different places.

How the values were obtained:
[1] = test system: PDACC (pancreatic ductal adenocarcinoma cells); experiment: PDACC viability with anti-RNLS antibodies, WST-1; assay type: cell-based, human; conditions: 72 hrs
Protocol: FIG. 25, comprising FIGS. 25A through 25E, is a series of charts and images showing that inhibition of RNLS signaling is cytotoxic to cancer cells in vitro and in vivo. FIG. 25A is a chart showing relative cell viability following transient transfection of Panc1 cells using a RNLS-specific siRNA, or a non-specific control siRNA, and cell viability assayed 96 h later using the WST-1 reagent; n=6, ** indicates p<0.001. FIG. 25B is a chart showing relative cell viability when cells were treated with indicated antibodies for 72 hrs and cell viability determined using WST-1; m28-RNLS and m37-RNLS: monoclonal antibodies raised against RNLS peptide RP220, ab31291: Abcam polyclonal antibody raised against a partial sequence of RP-220; n=6, * indicates p<0.005. […] FIG. 25D is a chart showing tumor volume increase after athymic nude mice received subcutaneous injection of Panc1 cells transduced with RNLS shRNA (sh-RNLS) or control (sh-Control); tumor volume measured every […] for up to 30 days, n=6 each; * indicates p<0.05. FIG. 25E is chart showing tumor volume increase after nude mice were xenografted with BxPC3; tumor volume measured prior to treatment every 3-4 days with 2 mg/kg of either rabbit IgG as a negative control or with m28-RNLS, n=10, * indicates p<0.05.
Cell viability was assessed by trypan blue exclusion, and cells were counted using a BioRad TC10 automated counter.

melanoma cell lines = experiment: melanoma cells in culture, viability / growth; assay type: cell-based, human
Protocol: Total cell number and percentage of live cells were assessed by trypan blue exclusion, and cells were counted using a BioRad TC10 automated cell counter. For additional studies, cell viability was determined using WST-1 reagent (Roche Diagnostics, Indianapolis, Ind., USA) according to the manufacturers' instruction. Absorbances were read using a microplate reader (Power Waves XS, BioTek Instruments, Winooski, Vt., USA).

Panc1 cells = experiment: FACS analysis of apoptosis and cell cycle; assay type: cell-based, human; conditions: 30 μg/ml
Protocol: For cell cycle analysis, cultured cells were dissociated using 10 mM EDTA, fixed with ice-cold 70% ethanol, digested with RNAse A, and stained with propidium iodide. Propidium staining was detected using a BD FACSCalibur flow cytometer (BD Biosciences, San Jose, Calif., USA), and analyzed using CellQuest software.
Apoptosis was detected and quantified as previously done (Guo et al., 2012 Cancer Science. 103(8):1474-80). In brief, cells were stained with FITC-labeled Annexin-V and propidium iodide according to the manufacturer's instructions (Bender MedSystems, Burlingame, Calif., USA). At least 20,000 events were collected on a BD FACSCalibur flow cytometer (BD Biosciences, San Jose, Calif., USA) and analyzed using CellQuest software.

BxPC3 xenografted tumors = experiment: BxPC3 pancreatic xenograft in athymic nude mice; assay type: in vivo, mouse
Protocol: Immunohistochemistry was performed as described previously (Guo et al., 2012 Cancer Science. 103(8):1474-80). Briefly tumor tissues were formalin-fixed, paraffin-embedded and cut into 5-m sections on glass slides. The slides were de-paraffinized and hydrated, followed by antigen retrieval in a pressure cooker containing 10 mM sodium citrate, pH6 buffer. The sections were blocked in 3% hydrogen peroxide for 30 min and 2.5% normal horse serum in PBS/0.1% Tween20 for 1 h followed by incubation with primary antibody and isotype control IgG overnight at 4° C. The following antibodies were used in this study: m28-RNLS at 500 ng/ml; goat polyclonal anti-RNLS at 250 ng/ml (Abcam, AB31291); rabbit monoclonal anti Ki67 (Vector Lab, VP-RM04, 1:100); rabbit monoclonal anti p21 and phspho-Tyr^705-Stat3 (Cell Signaling Technologies, #2947, 1:100 and #9145, 1:400, respectively). ImmPRESS peroxidase-anti-rabbit IgG (Vector Laboratories, Burlingame, Calif., USA) was used to detect primary antibodies. The color was developed using a Vector DAB substrate kit and counterstained with hematoxylin (Vector Laboratories). Slides were observed and photographed using an Olympus BX41 microscope and camera (Olympus America Inc, Center Valley, Pa., USA).
Female athymic, 18-20 g nude mice (nu/nu) were obtained from Charles River (Willimantic, Conn.) and housed in microisolator cages, with autoclaved bedding in a specific pathogen-free facility, with a 12-h light/dark cycle.
Xenograft tumors were established by subcutaneous injection of BxPC3 cells (2×10^6 in 100 μl of PBS, pH 7.6). When the tumors reached a volume of 50-100 mm^3, the mice were divided a control group (n=14 treated with rabbit IgG, 40 μg by intraperitoneal injection (IP)), and an experimental group (n=14) that received m28-RNLS (40 μg IP, every 3 days). Tumor size was measured with digital calipers and volume was calculated according to the formula (length×width^2)×π/2. In another group of animals (n=6 each) sh-RNLS or sh-Control Panc1 cells (2×10^6 in 100 μl of PBS, pH 7.6) were injected subcutaneously. These animals received no further treatments, and tumor size and volume were measured for up to 30 days.
At the end of the study, the mice were sacrificed, the tumors were excised and immediately snap-frozen in liquid nitrogen and stored at −80° C. Apoptosis was examined using the TUNEL assay (Roche in situ Apoptosis Detection System), according to the manufacturer's instructions. Sections were examined by light microscopy and the apoptosis index was determined by counting ≥1000 cells in 5 randomly selected high-power fields (×200 magnification).

[2] = test system: renalase-1 and renalase-2; experiment: renalase isoform specificity of the antibodies (ELISA / hybridoma screening); assay type: binding, human; conditions: renalase-1 vs renalase-2
Protocol: Peptides were used as immunogens. The peptides generated ranged from 9 to 21 amino acids and corresponded to regions of the renalase-1 and renalase-2 proteins. […] Each peptide was conjugated to the adjuvant KLH via the cysteine and used to immunize 6 rabbits. Antiserum collected from each animal was screened for anti-renalase antibody titer by ELISA assay using both the relevant peptide (BSA-conjugate) or full length renalase-1 or 2. The antisera were also tested for their ability to detect endogenous renalase in tissue lysates by western blot. Using these screening criteria the animals producing antibodies with the preferred characteristics were selected. In some examples and for some peptides, several animals produced antibodies with the required specificity. […] Polyclonal antibodies raised against all of the peptides were generated by purification of total IgG from terminal bleeds by protein G chromatography followed by further purification on peptide affinity chromatography. Further and using standard procedures, lymphocytes from the spleens of selected animals were fused to myeloma cells for hybridoma generation. The hybridoma supernatants were screened for binding to both the peptides against which they were raised and secondarily screened against whole renalase protein. Selected hybridomas were sub-cloned and expanded for antibody purification. The monoclonal antibodies were purified from conditioned hybridoma culture supernatant by protein A affinity chromatography.

B1: m28-RNLS: rabbit anti-renalase monoclonal raised against RNLS peptide RP-220; heavy chain SEQ ID NO:9, light chain SEQ ID NO:10 (antibody)
heavy: METGLRWLLLVAVLKGVQCQSVEESGGRLVTPGTPLTLTCTVSGFSLSSFAVGWVRQAPGKGLEYIGIISSVGITRYASWAAGRFTISKTSTTVDLKITSPTTEDTATYFCARYGYSGDVNRLDLWGQGTLVTVSSGQPKAPSVFPLAPCCGDTPSSTVTLGCLVKGYLPEPVTVTWNSGTLTNGVRTFPSVRQSSGLYSLSSVVSVTSSSQPVTCNVAHPATNTKVDKTVAPSTCSKPTCPPPELLGGPSVFIFPPKPKDTLMISRTPEVTCVVVDVSQDDPEVQFTWYINNEQVRTARPPLREQQFNSTIRVVSTLPIAHQDWLRGKEFKCKVHNKALPAPIEKTISKARGQPLEPKVYTMGPPREELSSRSVSLTCMINGFYPSDISVEWEKNGKAEDNYKTTPAVLDSDGSYFLYSKLSVPTSEWQRGDVFTCSVMHEALHNHYTQKSISRSPGK
light: MDTRAPTQLLGLLLLWLPGATFAQVLTQTASPVSAAVGGTVTINCQASQSVYDNNNLAWYQQKPGQPPKQLIYGASTLASGVSSRFKGSGSGTQFTLTISGVQCDDAATYYCLGEFSCSSADCFAFGGGTEVVVKGDPVAPTVLIFPPSADLVATGTVTIVCVANKYFPDVTVTWEVDGTTQTTGIENSKTPQNSADCTYNLSSTLTLTSTQYNSHKEYTCKVTQGTTSVVQSFNRGDC
modifications: 1D-28-4 full length heavy chain amino acid; 1D-28-4 full length light chain amino acid
PDACC growth / viability [1]: inhibitory effects
melanoma cell viability / growth in culture (melanoma cell lines): decreased the viability of all (total of 5) melanoma cell lines tested
melanoma cell viability / growth in culture (melanoma cell lines; listed as 1D-28-4): inhibits melanoma cells in culture
cell cycle (FACS) (Panc1 cells): pre-G2 cell cycle arrest
apoptosis (FACS) (Panc1 cells; 4 days): caused apoptosis
decrease in Ki67 expression vs IgG (BxPC3 xenografted tumors; mouse, in vivo): 2.5 fold
increase in apoptosis (TUNEL staining) vs IgG (BxPC3 xenografted tumors; mouse, in vivo): ~2 fold
increase in p21 expression vs IgG (BxPC3 xenografted tumors; mouse, in vivo): ~4 fold
p21 positive cells (BxPC3 xenografted tumors; n=14): 178.1 ± 11.4 positive cells/high power field
TUNEL positive cells (apoptosis) (BxPC3 xenografted tumors; n=14, IgG 14.8±2.3): 28.4±3.3 positive cells/high power field
Ki67 positive cells (BxPC3 xenografted tumors; n=14, IgG 340.2±11.9): 137.1±14.9 positive cells/high power field
tumor volume (BxPC3 xenografted tumors; vs rabbit IgG, up to 3 weeks, 40 μg IP every 3 days): inhibited PDAC growth; also recorded: significant decrease in tumor volume
renalase-type specificity [2]: recognize renalase-1 and renalase-2
